In paper PMC11661312, “The identification of XPR1 as a voltage- and phosphate-activated phosphate-permeable ion channel” (Research Square, 2024):

Target: the molecule itself
Test: cryo-EM structure; purified hXPR1 at 10 to 20 mg/mL in GDN/LMNG/CHS detergent mixture; apo: 20 mM Tris pH 7.4, 150 mM NaCl (C1 symmetry); also with 25 mM sodium phosphate, 150 mM NaCl, 1 mM phytic acid (InsP6) pH 7.4 (C2 symmetry imposed)

B1: human Xenotropic and Polytropic retrovirus Receptor 1 (hXPR1) (natural protein, UniProt Q9UBH6 1-696, looked up)
chain: MKFAEHLSAHITPEWRKQYIQYEAFKDMLYSAQDQAPSVEVTDEDTVKRYFAKFEEKFFQTCEKELAKINTFYSEKLAEAQRRFATLQNELQSSLDAQKESTGVTTLRQRRKPVFHLSHEERVQHRNIKDLKLAFSEFYLSLILLQNYQNLNFTGFRKILKKHDKILETSRGADWRVAHVEVAPFYTCKKINQLISETEAVVTNELEDGDRQKAMKRLRVPPLGAAQPAPAWTTFRVGLFCGIFIVLNITLVLAAVFKLETDRSIWPLIRIYRGGFLLIEFLFLLGINTYGWRQAGVNHVLIFELNPRSNLSHQHLFEIAGFLGILWCLSLLACFFAPISVIPTYVYPLALYGFMVFFLINPTKTFYYKSRFWLLKLLFRVFTAPFHKVGFADFWLADQLNSLSVILMDLEYMICFYSLELKWDESKGLLPNNSEESGICHKYTYGVRAIVQCIPAWLRFIQCLRRYRDTKRAFPHLVNAGKYSTTFFMVTFAALYSTHKERGHSDTMVFFYLWIVFYIISSCYTLIWDLKMDWGLFDKNAGENTFLREEIVYPQKAYYYCAIIEDVILRFAWTIQISITSTTLLPHSGDIIATVFAPLEVFRRFVWNFFRLENEHLNNCGEFRAVRDISVAPLNADDQTLLEQMMDQDDGVRNRQKNRSWKYNQSISLRRPRLASQSKARDTKVLIEDTDDEANT
notes: Xenotropic and Polytropic retrovirus Receptor 1 (XPR1), human, Uniprot Q9UBH6, full length; cDNA synthesized with a C-terminal Strep-tag II; Homodimer in the detergent mixture (GDN/LMNG/CHS) by cryo-EM; also called SLC53a1; apo-hXPR1
stoichiometry N: 2
